Data published in the supplement of paper PMC7877785.
± gives the uncertainty stated by the source.

Assay: self-splicing fitness, log relative to wild type (ln ratio); higher = more splicing; Tetrahymena group I intron in knt gene, E. coli kanamycin selection, DiMSum; sequences stand for … in CUCUCU…GGAGGGAAAAGUUAUCAGGCAUGCACCUGGUAGCUAGUCUUUAAACCAAUAGAUUGCAUCGGUUUAAAAGGCAAGACCGUCAAAUUGCGGGAAAGGGGUCAACAGCCGUUCAGUACCAAGUCUCAGGGGAAACUUUGAGAUGGCCUUGCAAAGGGUAUGGUAAUAAGCUGACGGACAUGGUCCUAACCACGCAGCCAAGUCCUAAGUCAACAGAUCUUCUGUUGAUAUGGAUGCAGUUCACAGACUAAAUGUCGGUCGGGGAAGAUGUAUUCUUCUCAUAAGAUAUAGUCGGACCUCUCCUUAAUGGGAGCUAGCGGAUGAAGUGAUGCAACACUGGAGCCGCUGGGAACUAAUUUGUAUGCGAAAGUAUAUUGAUUAGUUUUGGAGUACUCGUGGUCG
In short: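 Fitness was computed with DiMSum as the error-weighted combination of replicate fold changes, kanamycin versus none, each normalised to wild type. The library randomised all eight intron nucleotides of the P1ex region, with the intron placed in the knt kanamycin-resistance gene on pET-22b(+) in E. coli BL21(DE3). Six replicate transformations were grown overnight at 37°C or 30°C on LB agar with or without 25 μg/mL kanamycin, plus 100 μg/mL carbenicillin, 50 μM IPTG and 0.2% rhamnose. Pooled colonies were amplicon-sequenced on an Illumina HiSeq 2500.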

Sequence	self-splicing fitness (ln) (30 °C)	self-splicing fitness (ln) (37 °C)
AUAAAGCAAUAUUACGUUUG	-2.84 ± 0.11	-1.79 ± 0.12
AUACAGCAAUAUUACGAAAA	-2.58 ± 0.26	-1.4 ± 0.18
AUACAGCAAUAUUACGAAAC		-3.1 ± 0.24
AUACAGCAAUAUUACGAAGA	-3.16 ± 0.2	-2.04 ± 0.17
AUACAGCAAUAUUACGACAC	-0.517 ± 0.11	-1.31 ± 0.13
AUACAGCAAUAUUACGACAG	-2.15 ± 0.14	-2.03 ± 0.15
AUACAGCAAUAUUACGAGCC	-2.64 ± 0.27	
AUACAGCAAUAUUACGAGGA	-3.26 ± 0.19	-0.911 ± 0.12
AUACAGCAAUAUUACGCACG	-2.13 ± 0.12	-0.772 ± 0.15
AUACAGCAAUAUUACGCCCC	-1.47 ± 0.25	0.0702 ± 0.23
AUACAGCAAUAUUACGCGAC	-1.87 ± 0.14	-1.97 ± 0.22
AUACAGCAAUAUUACGCGAG	-2.35 ± 0.097	-0.829 ± 0.1
AUACAGCAAUAUUACGCGGU	-3.44 ± 0.21	-2.04 ± 0.18
AUACAGCAAUAUUACGCUUA	-1.67 ± 0.12	-0.741 ± 0.099
AUACAGCAAUAUUACGGAGG	-3.46 ± 0.21	-1.8 ± 0.19
AUACAGCAAUAUUACGGAUU	-1.82 ± 0.079	-1.24 ± 0.088
AUACAGCAAUAUUACGGCUA	0.0244 ± 0.072	0.138 ± 0.082
AUACAGCAAUAUUACGGCUU	0.0959 ± 0.047	0.115 ± 0.057
AUACAGCAAUAUUACGGUAA	-0.731 ± 0.094	-0.502 ± 0.093
AUACAGCAAUAUUACGGUCA	-0.743 ± 0.09	-0.0276 ± 0.099
AUACAGCAAUAUUACGGUCC	-1.18 ± 0.097	0.135 ± 0.11
AUACAGCAAUAUUACGGUCG	-1.08 ± 0.068	-0.545 ± 0.094

Sequence	self-splicing fitness (ln) (30 °C)	self-splicing fitness (ln) (37 °C)
AUACAGCAAUAUUACGUAAA	-1.87 ± 0.091	-1.41 ± 0.087
AUACAGCAAUAUUACGUAAG	-0.561 ± 0.05	-0.0861 ± 0.068
AUACAGCAAUAUUACGUACG	-0.772 ± 0.1	0.0144 ± 0.12
AUACAGCAAUAUUACGUAUA	-3.94 ± 0.26	-2.49 ± 0.16
AUACAGCAAUAUUACGUCGC	-2.42 ± 0.13	-3.06 ± 0.26
AUACAGCAAUAUUACGUUUC	-3.38 ± 0.19	-1.49 ± 0.2
AUACAGCAAUAUUACGUUUG	-2.93 ± 0.11	-2.35 ± 0.14
AUAGAGCAAUAUUACGAAGG		-1.24 ± 0.39
AUAGAGCAAUAUUACGAGUU	-2.25 ± 0.13	-1.33 ± 0.15
AUAGAGCAAUAUUACGAUCG	-1.08 ± 0.14	-1.4 ± 0.27
AUAGAGCAAUAUUACGAUGA	-2.14 ± 0.21	-1.75 ± 0.29
AUAGAGCAAUAUUACGCAAU	-0.971 ± 0.14	0.283 ± 0.2
AUAGAGCAAUAUUACGCACA	-0.178 ± 0.09	-0.032 ± 0.11
AUAGAGCAAUAUUACGCCAG	-2.27 ± 0.21	-1.14 ± 0.27
AUAGAGCAAUAUUACGCGAC	-2.44 ± 0.18	-1.3 ± 0.17
AUAGAGCAAUAUUACGCGAG	-1.54 ± 0.11	-1.26 ± 0.14
AUAGAGCAAUAUUACGCUUG	-0.549 ± 0.12	-0.411 ± 0.13
AUAGAGCAAUAUUACGGAGA	-1.97 ± 0.26	-2.31 ± 0.39
AUAGAGCAAUAUUACGGCCU	-0.822 ± 0.2	-0.365 ± 0.21
AUAGAGCAAUAUUACGGCGU	0.102 ± 0.079	0.527 ± 0.12
AUAGAGCAAUAUUACGGCUC	-0.971 ± 0.11	-0.403 ± 0.23
